Experimental data published in patent US9371393B2, “Class I anti-CEA antibodies and uses thereof” (Immunomedics, Inc., priority 2009, dated 2016).

Biological target: T1, NCA-90 (HeLa-KNC6/S44) (Homo sapiens, UniProt P40199)
T1 construct: expressed in transfected cells; host or cells: HeLa (HeLa-KNC6/S44)
T1 sequence (P40199 35-320): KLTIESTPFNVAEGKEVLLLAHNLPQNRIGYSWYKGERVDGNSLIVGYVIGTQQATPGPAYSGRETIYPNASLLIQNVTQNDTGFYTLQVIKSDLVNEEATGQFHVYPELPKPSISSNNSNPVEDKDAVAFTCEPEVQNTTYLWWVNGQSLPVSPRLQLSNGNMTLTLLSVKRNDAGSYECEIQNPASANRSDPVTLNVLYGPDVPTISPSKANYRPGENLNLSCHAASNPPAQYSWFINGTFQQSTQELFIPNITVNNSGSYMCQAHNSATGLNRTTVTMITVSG
Assay: Indirect flow cytometry, HeLa-KNC6/S44
Assay type: binding
Conditions: antibodies at 1/50 dilution of 1 mg/ml stocks
Description: The reactivity of antibodies was tested by flow cytometry with a Becton-Dickinson FACSCAN®. The biotinylated second antibody was directed against mouse IgG and was detected by a streptavidin/phycoerythrin conjugate. Tests were carried out with antibodies at 1/50 dilution of 1 mg/ml stocks.
The antibodies MN-3 and MN-15 were tested for recognition of HeLa cells transfected with cDNA coding for CEA (HeLa-CEA2), NCA-90 (HeLa-KNC6/S44) and NCA-95 (HeLa-CGM6/1). As a negative control, HeLa cells transfected with the plasmid pSV2-Neo (control HeLa cells, HeLa-NeoA) were used. In addition to the antibodies MN-3 and MN-15, three control antibodies were included: […]

binding to NCA-90: binds to all three antigens
B1: MN-15: murine Class I anti-CEA MAb, IgG1 kappa, binds A1B1 domain of CEACAM5 and CEACAM6 (antibody, V domains shown)
VL: DIQLTQSPAIMSASPGEKVTMTCSASSRVSYIHWYQQKSGTSPKRWIYGTSTLASGVPARFSGSGSGTSYSLTISSMEAEDAATYYCQQWSYNPPTFGAGTKLELKR
VH: EVRLVESGGGLVQGPGSLRLSCAASGFALTDYYMSWVRQSPGKTLEWLGFIANKANGHTTDYSPSVKGRFTISRDNSQTILYLQMNTLRTEDSATYYCARDMGIRWNFDVWGQGTTVTVSS
